From IntAct's records for PubMed 26481812

B1: C-type mannose receptor 2 (Homo sapiens), Q9UBG0 (parent)
chain: MGPGRPAPAPWPRHLLRCVLLLGCLHLGRPGAPGDAALPEPNVFLIFSHGLQGCLEAQGGQVRVTPACNTSLPAQRWKWVSRNRLFNLGTMQCLGTGWPGTNTTASLGMYECDREALNLRWHCRTLGDQLSLLLGARTSNISKPGTLERGDQTRSGQWRIYGSEEDLCALPYHEVYTIQGNSHGKPCTIPFKYDNQWFHGCTSTGREDGHLWCATTQDYGKDERWGFCPIKSNDCETFWDKDQLTDSCYQFNFQSTLSWREAWASCEQQGADLLSITEIHEQTYINGLLTGYSSTLWIGLNDLDTSGGWQWSDNSPLKYLNWESDQPDNPSEENCGVIRTESSGGWQNRDCSIALPYVCKKKPNATAEPTPPDRWANVKVECEPSWQPFQGHCYRLQAEKRSWQESKKACLRGGGDLVSIHSMAELEFITKQIKQEVEELWIGLNDLKLQMNFEWSDGSLVSFTHWHPFEPNNFRDSLEDCVTIWGPEGRWNDSPCNQSLPSICKKAGQLSQGAAEEDHGCRKGWTWHSPSCYWLGEDQVTYSEARRLCTDHGSQLVTITNRFEQAFVSSLIYNWEGEYFWTALQDLNSTGSFFWLSGDEVMYTHWNRDQPGYSRGGCVALATGSAMGLWEVKNCTSFRARYICRQSLGTPVTPELPGPDPTPSLTGSCPQGWASDTKLRYCYKVFSSERLQDKKSWVQAQGACQELGAQLLSLASYEEEHFVANMLNKIFGESEPEIHEQHWFWIGLNRRDPRGGQSWRWSDGVGFSYHNFDRSRHDDDDIRGCAVLDLASLQWVAMQCDTQLDWICKIPRGTDVREPDDSPQGRREWLRFQEAEYKFFEHHSTWAQAQRICTWFQAELTSVHSQAELDFLSHNLQKFSRAQEQHWWIGLHTSESDGRFRWTDGSIINFISWAPGKPRPVGKDKKCVYMTASREDWGDQRCLTALPYICKRSNVTKETQPPDLPTTALGGCPSDWIQFLNKCFQVQGQEPQSRVKWSEAQFSCEQQEAQLVTITNPLEQAFITASLPNVTFDLWIGLHASQRDFQWVEQEPLMYANWAPGEPSGPSPAPSGNKPTSCAVVLHSPSAHFTGRWDDRSCTEETHGFICQKGTDPSLSPSPAALPPAPGTELSYLNGTFRLLQKPLRWHDALLLCESRNASLAYVPDPYTQAFLTQAARGLRTPLWIGLAGEEGSRRYSWVSEEPLNYVGWQDGEPQQPGGCTYVDVDGAWRTTSCDTKLQGAVCGVSSGPPPPRRISYHGSCPQGLADSAWIPFREHCYSFHMELLLGHKEARQRCQRAGGAVLSILDEMENVFVWEHLQSYEGQSRGAWLGMNFNPKGGTLVWQDNTAVNYSNWGPPGLGPSMLSHNSCYWIQSNSGLWRPGACTNITMGVVCKLPRAEQSSFSPSALPENPAALVVVLMAVLLLLALLTAALILYRRRQSIERGAFEGARYSRSSSSPTEATEKNILVSDMEMNEQQE

Variants of: B1
Conditions: with co1a1_rat Col1a1, P02454
Sequence of co1a1_rat Col1a1, P02454 (P02454 whole entry): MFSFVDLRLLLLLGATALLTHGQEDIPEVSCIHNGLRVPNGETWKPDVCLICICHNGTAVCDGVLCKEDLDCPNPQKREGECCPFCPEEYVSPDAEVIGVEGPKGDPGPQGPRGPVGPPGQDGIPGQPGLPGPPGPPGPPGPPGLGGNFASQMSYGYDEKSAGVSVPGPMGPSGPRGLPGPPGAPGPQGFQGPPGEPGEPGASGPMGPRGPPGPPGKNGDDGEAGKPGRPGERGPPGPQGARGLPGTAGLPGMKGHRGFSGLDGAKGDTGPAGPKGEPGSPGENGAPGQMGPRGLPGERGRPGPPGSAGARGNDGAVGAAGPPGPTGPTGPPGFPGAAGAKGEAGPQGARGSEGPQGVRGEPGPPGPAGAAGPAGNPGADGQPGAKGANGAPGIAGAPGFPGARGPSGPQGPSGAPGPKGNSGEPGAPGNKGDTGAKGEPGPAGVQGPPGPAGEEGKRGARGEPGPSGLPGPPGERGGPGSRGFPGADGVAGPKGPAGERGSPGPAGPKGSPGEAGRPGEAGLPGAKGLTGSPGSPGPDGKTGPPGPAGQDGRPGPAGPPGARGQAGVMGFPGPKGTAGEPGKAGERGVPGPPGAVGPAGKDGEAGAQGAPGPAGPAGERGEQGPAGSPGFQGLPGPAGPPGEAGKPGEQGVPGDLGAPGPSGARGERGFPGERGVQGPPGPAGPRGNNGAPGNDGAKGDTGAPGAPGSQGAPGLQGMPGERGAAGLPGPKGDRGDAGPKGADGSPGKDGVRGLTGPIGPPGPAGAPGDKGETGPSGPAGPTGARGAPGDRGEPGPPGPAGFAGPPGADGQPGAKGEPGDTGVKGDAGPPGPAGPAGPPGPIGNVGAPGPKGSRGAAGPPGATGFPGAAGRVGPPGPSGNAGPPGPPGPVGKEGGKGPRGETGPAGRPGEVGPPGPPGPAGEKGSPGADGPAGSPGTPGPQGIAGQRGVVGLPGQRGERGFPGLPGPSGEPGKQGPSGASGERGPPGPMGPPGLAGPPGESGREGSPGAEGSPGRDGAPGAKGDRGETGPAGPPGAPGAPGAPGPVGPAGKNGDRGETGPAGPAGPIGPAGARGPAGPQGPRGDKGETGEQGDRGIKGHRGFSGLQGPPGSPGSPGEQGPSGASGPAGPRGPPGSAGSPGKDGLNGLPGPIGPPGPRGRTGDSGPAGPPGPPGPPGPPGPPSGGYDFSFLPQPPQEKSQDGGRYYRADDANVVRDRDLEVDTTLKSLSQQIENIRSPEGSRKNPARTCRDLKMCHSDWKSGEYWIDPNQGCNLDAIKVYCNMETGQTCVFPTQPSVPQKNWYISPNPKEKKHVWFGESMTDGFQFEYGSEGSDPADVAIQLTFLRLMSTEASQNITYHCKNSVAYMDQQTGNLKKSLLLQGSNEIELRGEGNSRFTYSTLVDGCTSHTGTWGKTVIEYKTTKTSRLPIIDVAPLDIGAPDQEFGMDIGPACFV

| Variant | effect of a mutation on the interaction |
| --- | --- |
| Y193A | disrupting interaction strength |
| Q179N;N181T | disrupting interaction strength |
| R206A;D208A | disrupting interaction strength |

Continued, values first:

| effect of a mutation on the interaction | Variant |
| --- | --- |
| decreasing interaction strength | Y292N;S294T |
| disrupting interaction strength | Y219A |
